Reference: US6570002 (Johns Hopkins, dated 2003)

Target: T1, Aven (human, UniProt Q9NQS1 1-362)
T1 construct: also called Bif-1
T1 sequence: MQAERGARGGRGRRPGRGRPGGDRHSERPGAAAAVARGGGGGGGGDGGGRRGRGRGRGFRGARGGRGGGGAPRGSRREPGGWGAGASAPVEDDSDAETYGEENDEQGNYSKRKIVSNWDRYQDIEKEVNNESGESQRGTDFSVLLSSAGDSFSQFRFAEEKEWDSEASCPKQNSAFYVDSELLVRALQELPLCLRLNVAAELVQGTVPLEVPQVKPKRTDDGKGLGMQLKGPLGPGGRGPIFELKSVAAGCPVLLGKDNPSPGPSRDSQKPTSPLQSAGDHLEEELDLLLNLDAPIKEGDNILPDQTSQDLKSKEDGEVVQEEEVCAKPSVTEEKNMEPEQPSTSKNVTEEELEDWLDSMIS
Assay: yeast two-hybrid / co-immunoprecipitation (FIG. 6)

binding result: no binding
B1: Bak (other, UniProt Q16611 1-211, looked up)
chain: MASGQGPGPPRQECGEPALPSASEEQVAQDTEEVFRSYVFYRHQQEQEAEGVAAPADPEMVTLPLQPSSTMGQVGRQLAIIGDDINRRYDSEFQTMLQHLQPTAENAYEYFTKIATSLFESGINWGRVVALLGFGYRLALHVYQHGLTGFLGQVTRFVVDFMLHHCIARWIAQRGGWVAALNLGNGPILNVLVVLGVVLLGQFVVRRFFKS
